These results are taken from patent publication US20260167721A1 (ABLEXIS, published 2026).

Holding throughout (experiment): cell-based or functional assay
The target of experiment [1] is T1, CD3 on human donor PBMC / Pan T effector cells (human, UniProt P07766 23-207; P09693 23-182; P04234 22-171; P20963 22-164).
The target of experiment [2] is T1, CD3 on human donor PBMC / Pan T …. This is another data set of the same source.
In experiment [3] the target is T2, human CD3 (on human Pan-T cells or donor PBMC) (human, UniProt P07766 23-207; P04234 22-171; P09693 23-182; P20963 22-164).
Experiment [4] addresses T2, human CD3 (on human Pan-T cells or …). This is another data set of the same source.

T2 sequence (P07766 23-207, chain 1 of 4): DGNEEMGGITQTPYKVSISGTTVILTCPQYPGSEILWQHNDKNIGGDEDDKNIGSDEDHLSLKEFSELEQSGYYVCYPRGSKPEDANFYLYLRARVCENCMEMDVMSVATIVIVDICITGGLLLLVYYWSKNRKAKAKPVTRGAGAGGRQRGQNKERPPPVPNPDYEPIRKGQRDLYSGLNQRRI
T2 sequence (P04234 22-171, chain 2 of 4): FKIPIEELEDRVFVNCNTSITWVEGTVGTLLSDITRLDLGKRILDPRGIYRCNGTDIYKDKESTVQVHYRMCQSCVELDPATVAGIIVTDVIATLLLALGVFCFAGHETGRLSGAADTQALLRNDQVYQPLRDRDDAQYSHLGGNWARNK
T2 sequence (P09693 23-182, chain 3 of 4): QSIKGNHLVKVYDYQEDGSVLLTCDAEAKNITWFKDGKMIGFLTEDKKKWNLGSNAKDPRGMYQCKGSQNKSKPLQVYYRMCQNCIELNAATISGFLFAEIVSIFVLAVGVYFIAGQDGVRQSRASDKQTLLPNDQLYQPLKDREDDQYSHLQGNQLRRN
T2 sequence (P20963 22-164, chain 4 of 4): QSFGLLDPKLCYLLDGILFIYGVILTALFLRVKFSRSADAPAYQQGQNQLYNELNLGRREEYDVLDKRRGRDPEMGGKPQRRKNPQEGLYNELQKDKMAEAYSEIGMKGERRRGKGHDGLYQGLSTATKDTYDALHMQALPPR
T1 sequence (P07766 23-207, chain 1 of 4): as the sequence (P07766 23-207, chain 1 of 4) above
T1 sequence (P09693 23-182, chain 2 of 4): as the sequence (P09693 23-182, chain 3 of 4) above
T1 sequence (P04234 22-171, chain 3 of 4): as the sequence (P04234 22-171, chain 2 of 4) above
T1 sequence (P20963 22-164, chain 4 of 4): as the sequence (P20963 22-164, chain 4 of 4) above

B1: Gemtuzumab (antibody, V domains shown)
VH: EVQLVQSGAEVKKPGSSVKVSCKASGYTITDSNIHWVRQAPGQSLEWIGYIYPYNGGTDYNQKFKNRATLTVDNPTNTAYMELSSLRSEDTAFYYCVNGNPWLAYWGQGTLVTVSS
VL: DIQLTQSPSTLSASVGDRVTITCRASESLDNYGIRFLTWFQQKPGKAPKLLMYAASNQGSGVPSRFSGSGSGTEFTLTISSLQPDDFATYYCQQTKEVPWSFGQGTKVEVKR
As for B1, in experiment [1], the “Cytokine Release Assay (IL2) Donor 0 EC50” value was determined as 5.36 nM, the “Cytokine Release Assay (IL2) Donor 0 gMFI max” value stood at 12500 gMFI, the “Cytokine Release Assay (IL2) Donor 1 gMFI max” value turned out to be 12900 gMFI and the “Cytokine Release Assay (IL2) Donor 2 gMFI max” value came out at 10700 gMFI. For the same molecule, in experiment [1], the “Cytokine Release Assay (IL2) Donor 3 gMFI max” value is 12200 gMFI. In addition, in experiment [2], the “Cytokine Release Assay (TNFα) Donor 0 gMFI max” value is 5310 gMFI, the “Cytokine Release Assay (TNFα) Donor 1 gMFI max” value worked out at 4430 gMFI, the “Cytokine Release Assay (TNFα) Donor 2 gMFI max” value worked out at 3680 gMFI and the “Cytokine Release Assay (TNFα) Donor 3 gMFI max” value amounted to 3960 gMFI.

B2: CD3 × CD33-BspAb85 (bispecific antibody)
chain 1: EVQLVESGGGLVKPGGSLRLSCAASGFTFSSYSMNWVRQAPGKCLEWVSSISRSSGYIFYADSVKGRFTISRDNAKNSLYLQMNSLRAEDTAVYYCVRERVGAGFDYWGQGTLVTVSSGGGGSGGGGSGGGGSGGGGSNFMLTQPHSVSESPGKTVAISCTRSSGSIASNYVQWYQQRPGSSPTAVIYEDNQRPSGVPDRFSGSIDSSSNSAFLTISGLKTEDEADYYCQSYDSSNRVFGCGTKLTVLDKTHTCPPCPAPEFEGGPSVFLFPPKPKDTLMISRTPEVTCVVVDVSHEDPEVKFNWYVDGVEVHNAKTKPREEQYNSTYRVVSVLTVLHQDWLNGKEYKCKVSNKALPASIEKTISKAKGQPREPQVYTLPPCREEMTKNQVSLWCLVKGFYPSDIAVEWESNGQPENNYKTTPPVLDSDGSFFLYSKLTVDKSRWQQGNVFSCSVMHEALHNHYTQKSLSLSPGK
chain 2: EVQLVQSGAEVKKPGSSVKVSCKASGYTITDSNIHWVRQAPGQSLEWIGYIYPYNGGTDYNQKFKNRATLTVDNPTNTAYMELSSLRSEDTAFYYCVNGNPWLAYWGQGTLVTVSSASTKGPSVFPLAPSSKSTSGGTAALGCLVKDYFPEPVTVSWNSGALTSGVHTFPAVLQSSGLYSLSSVVTVPSSSLGTQTYICNVNHKPSNTKVDKRVEPKSCDKTHTCPPCPAPEFEGGPSVFLFPPKPKDTLMISRTPEVTCVVVDVSHEDPEVKFNWYVDGVEVHNAKTKPREEQYNSTYRVVSVLTVLHQDWLNGKEYKCKVSNKALPASIEKTISKAKGQPREPQVCTLPPSREEMTKNQVSLSCAVKGFYPSDIAVEWESNGQPENNYKTTPPVLDSDGSFFLVSKLTVDKSRWQQGNVFSCSVMHEALHNRFTQKSLSLSPGK
chain 3: DIQLTQSPSTLSASVGDRVTITCRASESLDNYGIRFLTWFQQKPGKAPKLLMYAASNQGSGVPSRFSGSGSGTEFTLTISSLQPDDFATYYCQQTKEVPWSFGQGTKVEVKRTVAAPSVFIFPPSDEQLKSGTASVVCLLNNFYPREAKVQWKVDNALQSGNSQESVTEQDSKDSTYSLSSTLTLSKADYEKHKVYACEVTHQGLSSPVTKSFNRGEC
As for B2, in experiment [3], the “Cytokine Release Assay (IFNγ), Donor 0, EC50” value amounted to 0.0832 nM; the “Cytokine Release Assay (IFNγ), Donor 0, gMFI max” value was 983000 gMFI; the “Cytokine Release Assay (IFNγ), Donor 1, gMFI max” value amounted to 8040 gMFI; the “Cytokine Release Assay (IFNγ), Donor 2, EC50” value is 0.0468 nM. In experiment [3], the “Cytokine Release Assay (IFNγ), Donor 2, gMFI max” value turned out to be 31400 gMFI and the “Cytokine Release Assay (IFNγ), Donor 3, gMFI max” value is 104000 gMFI. Further, in experiment [4], the “RTCC Assay, Donor 0, EC50” value came out at 0.102 nM; the “RTCC Assay, Donor 0, gMFI max” value amounted to 29900 gMFI; the “RTCC Assay, Donor 1, EC50” value came to 0.006 nM; the “RTCC Assay, Donor 1, gMFI max” value amounted to 78200 gMFI. Besides, in experiment [4], the “RTCC Assay, Donor 2, EC50” value was 0.028 nM; the “RTCC Assay, Donor 2, gMFI max” value amounted to 64200 gMFI; the “RTCC Assay, Donor 3, EC50” value was determined as 0.045 nM; the “RTCC Assay, Donor 3, gMFI max” value was found to be 85600 gMFI.

B3: CD3 × CD33-BspAb90 (bispecific antibody)
chain 1: not shown
chain 2: B2 chain 2
chain 3: B2 chain 3
B3: in experiment [3], the “Cytokine Release Assay (IFNγ), Donor 0, EC50” value came out at 0.191 nM; the “Cytokine Release Assay (IFNγ), Donor 0, gMFI max” value came to 1.71e+06 gMFI; the “Cytokine Release Assay (IFNγ), Donor 1, gMFI max” value was found to be 10800 gMFI; the “Cytokine Release Assay (IFNγ), Donor 2, EC50” value is 0.126 nM. In experiment [3], the “Cytokine Release Assay (IFNγ), Donor 2, gMFI max” value was found to be 31600 gMFI; the “Cytokine Release Assay (IFNγ), Donor 3, EC50” value is 0.0851 nM; the “Cytokine Release Assay (IFNγ), Donor 3, gMFI max” value was determined as 513000 gMFI. In experiment [4], the “RTCC Assay, Donor 0, EC50” value was 0.147 nM; the “RTCC Assay, Donor 0, gMFI max” value turned out to be 34800 gMFI; the “RTCC Assay, Donor 1, EC50” value was 0.012 nM; the “RTCC Assay, Donor 1, gMFI max” value came out at 76900 gMFI. In addition, in experiment [4], the “RTCC Assay, Donor 2, EC50” value worked out at 0.034 nM; the “RTCC Assay, Donor 2, gMFI max” value was 62300 gMFI; the “RTCC Assay, Donor 3, EC50” value amounted to 0.047 nM; the “RTCC Assay, Donor 3, gMFI max” value is 84000 gMFI.

B4: Low affinity Control (Control Humanized anti-CD3 (low affinity) scFv-Fc knob/TM x gemtuzumab) (bispecific antibody)
chain: EVQLVESGGGLVQPGGSLRLSCAASGFTFSTYAMNWVRQAPGKGLEWVGRIRSKYNNYATYYADSVKGRFTISRDDSKNTLYLQMNSLRAEDTAVYYCVRHGNFGDSYVSWFDYWGQGTLVTVSSGKPGSGKPGSGKPGSGKPGSQAVVTQEPSLTVSPGGTVTLTCGSSTGAVTTSNYANWVQQKPGKSPRGLIGGTNKRAPGVPARFSGSLLGGKAALTISGAQPEDEADYYCALWYSNHWVFGGGTKLTVLGGGGSDKTHTCPPCPAPEFEGGPSVFLFPPKPKDTLMISRTPEVTCVVVDVSHEDPEVKFNWYVDGVEVHNAKTKPREEQYNSTYRVVSVLTVLHQDWLNGKEYKCKVSNKALPASIEKTISKAKGQPREPQVYTLPPCREEMTKNQVSLWCLVKGFYPSDIAVEWESNGQPENNYKTTPPVLDSDGSFFLYSKLTVDKSRWQQGNVFSCSVMHEALHNHYTQKSLSLSPGK
heavy: B2 chain 2
light: B2 chain 3
For the molecule B4, in experiment [1], the “Cytokine Release Assay (IL2) Donor 0 EC50” value turned out to be 2.29 nM, the “Cytokine Release Assay (IL2) Donor 0 gMFI max” value was 24300 gMFI, the “Cytokine Release Assay (IL2) Donor 1 EC50” value worked out at 10.8 nM and the “Cytokine Release Assay (IL2) Donor 1 gMFI max” value turned out to be 18500 gMFI. In experiment [1], the “Cytokine Release Assay (IL2) Donor 2 gMFI max” value was 15700 gMFI, the “Cytokine Release Assay (IL2) Donor 3 EC50” value was found to be 2.92 nM and the “Cytokine Release Assay (IL2) Donor 3 gMFI max” value was found to be 21200 gMFI. Also, in experiment [2], the “Cytokine Release Assay (TNFα) Donor 0 EC50” value was found to be 0.549 nM, the “Cytokine Release Assay (TNFα) Donor 0 gMFI max” value is 222000 gMFI, the “Cytokine Release Assay (TNFα) Donor 1 gMFI max” value amounted to 82800 gMFI and the “Cytokine Release Assay (TNFα) Donor 2 EC50” value amounted to 24.6 nM. In experiment [2], the “Cytokine Release Assay (TNFα) Donor 2 gMFI max” value was 135000 gMFI, the “Cytokine Release Assay (TNFα) Donor 3 EC50” value came to 40.7 nM and the “Cytokine Release Assay (TNFα) Donor 3 gMFI max” value was 122000 gMFI.

B5: CD3 × CD33-BspAb86 (bispecific antibody)
chain 1: EVQLVESGGGLVKPGGSLRLSCAASGFTFSSYSMNWVRQAPGKCLEWVSSISRSGTYIYYADSVKGRFTISRDNAKNSLYLQMNSLRAEDTAVYYCARERWELLYFDYWGQGTLVTVSSGGGGSGGGGSGGGGSGGGGSQTVVTQEPSLTVSPGGTVTLTCASSTGAVTSGYYPNWFQQKPGQAPRALIYSTSNKHSWTPARFSGSLLGGKAALTLSGVQPEDEAEYYCLLYYGGAYVFGCGTKVTVLDKTHTCPPCPAPEFEGGPSVFLFPPKPKDTLMISRTPEVTCVVVDVSHEDPEVKFNWYVDGVEVHNAKTKPREEQYNSTYRVVSVLTVLHQDWLNGKEYKCKVSNKALPASIEKTISKAKGQPREPQVYTLPPCREEMTKNQVSLWCLVKGFYPSDIAVEWESNGQPENNYKTTPPVLDSDGSFFLYSKLTVDKSRWQQGNVFSCSVMHEALHNHYTQKSLSLSPGK
chain 2: B2 chain 2
chain 3: B2 chain 3
With B5, in experiment [3], the “Cytokine Release Assay (IFNγ), Donor 0, EC50” value is 2.35 nM; the “Cytokine Release Assay (IFNγ), Donor 0, gMFI max” value came to 573000 gMFI; the “Cytokine Release Assay (IFNγ), Donor 1, gMFI max” value was determined as 4690 gMFI; the “Cytokine Release Assay (IFNγ), Donor 2, EC50” value is 2.68 nM. Also, in experiment [3], the “Cytokine Release Assay (IFNγ), Donor 2, gMFI max” value came to 18500 gMFI; the “Cytokine Release Assay (IFNγ), Donor 3, EC50” value stood at 7.93 nM; the “Cytokine Release Assay (IFNγ), Donor 3, gMFI max” value is 152000 gMFI. For the same molecule, in experiment [4], the “RTCC Assay, Donor 0, EC50” value worked out at 1.71 nM; the “RTCC Assay, Donor 0, gMFI max” value turned out to be 24100 gMFI; the “RTCC Assay, Donor 1, EC50” value turned out to be 0.151 nM; the “RTCC Assay, Donor 1, gMFI max” value turned out to be 67300 gMFI. Besides, in experiment [4], the “RTCC Assay, Donor 2, EC50” value was determined as 0.697 nM; the “RTCC Assay, Donor 2, gMFI max” value worked out at 59100 gMFI; the “RTCC Assay, Donor 3, EC50” value was 1.58 nM; the “RTCC Assay, Donor 3, gMFI max” value was 83500 gMFI.
